Data reported in patent US20160115500A1 (University of California, published 2016).

T1: GAL4 activation domain fusion (ACT) to HAB1 (UniProt Q9CAJ0 23-511, limits assumed)
T1 construct: pACT-HAB1 fusion in yeast reporter strains; also called pACT-HAB1
T1 sequence (looked up): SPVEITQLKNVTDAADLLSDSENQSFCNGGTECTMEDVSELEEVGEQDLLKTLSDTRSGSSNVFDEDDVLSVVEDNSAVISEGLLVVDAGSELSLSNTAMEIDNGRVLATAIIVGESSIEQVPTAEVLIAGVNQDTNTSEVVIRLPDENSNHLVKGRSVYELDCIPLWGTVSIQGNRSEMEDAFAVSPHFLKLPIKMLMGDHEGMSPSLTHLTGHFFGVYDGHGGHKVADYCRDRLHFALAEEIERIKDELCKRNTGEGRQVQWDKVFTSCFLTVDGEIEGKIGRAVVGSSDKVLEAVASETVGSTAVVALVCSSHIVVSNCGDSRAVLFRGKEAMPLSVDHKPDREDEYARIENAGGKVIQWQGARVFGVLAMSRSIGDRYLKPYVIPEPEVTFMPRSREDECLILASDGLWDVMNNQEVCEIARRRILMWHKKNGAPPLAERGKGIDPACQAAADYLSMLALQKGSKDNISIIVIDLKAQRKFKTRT


Target: T1, GAL4 activation domain fusion (ACT) to …
Experiment: yeast two-hybrid, X-gal; lowest dichlobenil concentration giving signal

Binder	Threshold
PYR1^K59R,A160I (receptor, not shown: small tags and cut ends, pBD-PYR1 fusion in yeast) MPSELTPEERSELKNSIAEFHTYQLDPGSCSSLHAQRIHAPPELVWSIVRRFDKPQTYRHFIKSCSVEQNFEMRVGCTRDVIVISGLPANTSTERLDILDDERRVTGFSIIGGEHRLTNYKSVTTVHRFEKENRIWTVVLESYVVDMPEGNSEDDTRMFIDTVVKLNLQKLATVAEAMARNSGDGSGSQVT	100 µM
PYR1^K59R,E141H (receptor, not shown: small tags and cut ends, pBD-PYR1 fusion in yeast) MPSELTPEERSELKNSIAEFHTYQLDPGSCSSLHAQRIHAPPELVWSIVRRFDKPQTYRHFIKSCSVEQNFEMRVGCTRDVIVISGLPANTSTERLDILDDERRVTGFSIIGGEHRLTNYKSVTTVHRFEKENRIWTVVLHSYVVDMPEGNSEDDTRMFADTVVKLNLQKLATVAEAMARNSGDGSGSQVT	100 µM
PYR1^K59R,A160N (receptor, not shown: small tags and cut ends, pBD-PYR1 fusion in yeast) MPSELTPEERSELKNSIAEFHTYQLDPGSCSSLHAQRIHAPPELVWSIVRRFDKPQTYRHFIKSCSVEQNFEMRVGCTRDVIVISGLPANTSTERLDILDDERRVTGFSIIGGEHRLTNYKSVTTVHRFEKENRIWTVVLESYVVDMPEGNSEDDTRMFNDTVVKLNLQKLATVAEAMARNSGDGSGSQVT	100 µM
PYR1^K59R,E141L (receptor, not shown: small tags and cut ends, pBD-PYR1 fusion in yeast) MPSELTPEERSELKNSIAEFHTYQLDPGSCSSLHAQRIHAPPELVWSIVRRFDKPQTYRHFIKSCSVEQNFEMRVGCTRDVIVISGLPANTSTERLDILDDERRVTGFSIIGGEHRLTNYKSVTTVHRFEKENRIWTVVLLSYVVDMPEGNSEDDTRMFADTVVKLNLQKLATVAEAMARNSGDGSGSQVT	100 µM
PYR1^K59R,A160S (receptor, not shown: small tags and cut ends, pBD-PYR1 fusion in yeast) MPSELTPEERSELKNSIAEFHTYQLDPGSCSSLHAQRIHAPPELVWSIVRRFDKPQTYRHFIKSCSVEQNFEMRVGCTRDVIVISGLPANTSTERLDILDDERRVTGFSIIGGEHRLTNYKSVTTVHRFEKENRIWTVVLESYVVDMPEGNSEDDTRMFSDTVVKLNLQKLATVAEAMARNSGDGSGSQVT	100 µM
PYR1^K59R,E141F (receptor, pBD-PYR1 fusion in yeast) MPSELTPEERSELKNSIAEFHTYQLDPGSCSSLHAQRIHAPPELVWSIVRRFDKPQTYRHFIKSCSVEQNFEMRVGCTRDVIVISGLPANTSTERLDILDDERRVTGFSIIGGEHRLTNYKSVTTVHRFEKENRIWTVVLFSYVVDMPEGNSEDDTRMFADTVVKLNLQKLATVAEAMARNSGDGSGSQVT	100 µM
PYR1^K59R,A160T (receptor, not shown: small tags and cut ends, pBD-PYR1 fusion in yeast) MPSELTPEERSELKNSIAEFHTYQLDPGSCSSLHAQRIHAPPELVWSIVRRFDKPQTYRHFIKSCSVEQNFEMRVGCTRDVIVISGLPANTSTERLDILDDERRVTGFSIIGGEHRLTNYKSVTTVHRFEKENRIWTVVLESYVVDMPEGNSEDDTRMFTDTVVKLNLQKLATVAEAMARNSGDGSGSQVT	100 µM
PYR1^K59R,A160Y (receptor, not shown: small tags and cut ends, pBD-PYR1 fusion in yeast) MPSELTPEERSELKNSIAEFHTYQLDPGSCSSLHAQRIHAPPELVWSIVRRFDKPQTYRHFIKSCSVEQNFEMRVGCTRDVIVISGLPANTSTERLDILDDERRVTGFSIIGGEHRLTNYKSVTTVHRFEKENRIWTVVLESYVVDMPEGNSEDDTRMFYDTVVKLNLQKLATVAEAMARNSGDGSGSQVT	100 µM
PYR1^K59R,A160V (receptor, not shown: small tags and cut ends, pBD-PYR1 fusion in yeast) MPSELTPEERSELKNSIAEFHTYQLDPGSCSSLHAQRIHAPPELVWSIVRRFDKPQTYRHFIKSCSVEQNFEMRVGCTRDVIVISGLPANTSTERLDILDDERRVTGFSIIGGEHRLTNYKSVTTVHRFEKENRIWTVVLESYVVDMPEGNSEDDTRMFVDTVVKLNLQKLATVAEAMARNSGDGSGSQVT	100 µM

Further lines, results first:

Threshold	Binder
100 µM	PYR1^K59R,I110M (receptor, not shown: small tags and cut ends, pBD-PYR1 fusion in yeast) MPSELTPEERSELKNSIAEFHTYQLDPGSCSSLHAQRIHAPPELVWSIVRRFDKPQTYRHFIKSCSVEQNFEMRVGCTRDVIVISGLPANTSTERLDILDDERRVTGFSMIGGEHRLTNYKSVTTVHRFEKENRIWTVVLESYVVDMPEGNSEDDTRMFADTVVKLNLQKLATVAEAMARNSGDGSGSQVT
100 µM	PYR1^K59R,M158G (receptor, not shown: small tags and cut ends, pBD-PYR1 fusion in yeast) MPSELTPEERSELKNSIAEFHTYQLDPGSCSSLHAQRIHAPPELVWSIVRRFDKPQTYRHFIKSCSVEQNFEMRVGCTRDVIVISGLPANTSTERLDILDDERRVTGFSIIGGEHRLTNYKSVTTVHRFEKENRIWTVVLESYVVDMPEGNSEDDTRGFADTVVKLNLQKLATVAEAMARNSGDGSGSQVT
100 µM	PYR1^K59R,H115N (receptor, pBD-PYR1 fusion in yeast) MPSELTPEERSELKNSIAEFHTYQLDPGSCSSLHAQRIHAPPELVWSIVRRFDKPQTYRHFIKSCSVEQNFEMRVGCTRDVIVISGLPANTSTERLDILDDERRVTGFSIIGGENRLTNYKSVTTVHRFEKENRIWTVVLESYVVDMPEGNSEDDTRMFADTVVKLNLQKLATVAEAMARNSGDGSGSQVT
100 µM	PYR1^K59R,E141Q (receptor, not shown: small tags and cut ends, pBD-PYR1 fusion in yeast) MPSELTPEERSELKNSIAEFHTYQLDPGSCSSLHAQRIHAPPELVWSIVRRFDKPQTYRHFIKSCSVEQNFEMRVGCTRDVIVISGLPANTSTERLDILDDERRVTGFSIIGGEHRLTNYKSVTTVHRFEKENRIWTVVLQSYVVDMPEGNSEDDTRMFADTVVKLNLQKLATVAEAMARNSGDGSGSQVT
100 µM	PYR1^K59R,N167A (receptor, not shown: small tags and cut ends, pBD-PYR1 fusion in yeast) MPSELTPEERSELKNSIAEFHTYQLDPGSCSSLHAQRIHAPPELVWSIVRRFDKPQTYRHFIKSCSVEQNFEMRVGCTRDVIVISGLPANTSTERLDILDDERRVTGFSIIGGEHRLTNYKSVTTVHRFEKENRIWTVVLESYVVDMPEGNSEDDTRMFADTVVKLALQKLATVAEAMARNSGDGSGSQVT
100 µM	PYR1^K59R,M158A (receptor, not shown: small tags and cut ends, pBD-PYR1 fusion in yeast) MPSELTPEERSELKNSIAEFHTYQLDPGSCSSLHAQRIHAPPELVWSIVRRFDKPQTYRHFIKSCSVEQNFEMRVGCTRDVIVISGLPANTSTERLDILDDERRVTGFSIIGGEHRLTNYKSVTTVHRFEKENRIWTVVLESYVVDMPEGNSEDDTRAFADTVVKLNLQKLATVAEAMARNSGDGSGSQVT
100 µM	PYR1^K59R,M158S (receptor, not shown: small tags and cut ends, pBD-PYR1 fusion in yeast) MPSELTPEERSELKNSIAEFHTYQLDPGSCSSLHAQRIHAPPELVWSIVRRFDKPQTYRHFIKSCSVEQNFEMRVGCTRDVIVISGLPANTSTERLDILDDERRVTGFSIIGGEHRLTNYKSVTTVHRFEKENRIWTVVLESYVVDMPEGNSEDDTRSFADTVVKLNLQKLATVAEAMARNSGDGSGSQVT
100 µM	PYR1^K59R,N167D (receptor, not shown: small tags and cut ends, pBD-PYR1 fusion in yeast) MPSELTPEERSELKNSIAEFHTYQLDPGSCSSLHAQRIHAPPELVWSIVRRFDKPQTYRHFIKSCSVEQNFEMRVGCTRDVIVISGLPANTSTERLDILDDERRVTGFSIIGGEHRLTNYKSVTTVHRFEKENRIWTVVLESYVVDMPEGNSEDDTRMFADTVVKLDLQKLATVAEAMARNSGDGSGSQVT
100 µM	PYR1^K59R,M158L (receptor, not shown: small tags and cut ends, pBD-PYR1 fusion in yeast) MPSELTPEERSELKNSIAEFHTYQLDPGSCSSLHAQRIHAPPELVWSIVRRFDKPQTYRHFIKSCSVEQNFEMRVGCTRDVIVISGLPANTSTERLDILDDERRVTGFSIIGGEHRLTNYKSVTTVHRFEKENRIWTVVLESYVVDMPEGNSEDDTRLFADTVVKLNLQKLATVAEAMARNSGDGSGSQVT
